Assay results as given in paper PMC4947174 (Nature Communications, 2016).

B1: Rrn3 (Pol I-specific initiation factor), overexpressed in yeast as Rrn3-TEV-ProtA-His7 (natural protein, S. cerevisiae)
chain: MMAFENTSKRPPQDFVAPIDQKKRKVQFSDSTGLVTLQPEEIKDEVFSAAMYSRFVKSALDDLDKNDSTQIGIIANQVALPSKNPERINDKNLNILLDILSSNINRIESSRGTFLIQSIINFEKWWELPPHTLSKYIYFIKILCSSIPKWWQDVSMILVSCFILPIKQTVCHHDMLKYFLRMIPSSMGFIDTYLAKFFPNKNDTRRKLVNYTSNLLKLRGYCSELGFQIWSLLIEKIISIDVELQNELDELDDDVDDDDLEEVDLEDDDDLDDDSGDDDDENCGNSNEELRSGAADGSQSDSEDMDIIEGMDGTEEYNVELTQGIKELSTKLDSILTLVSTHVEEQVTPESLESGEGVGVFNTLTTLFKTHVLPTYYTRSIQYIMFHVSQQQLELMDSFLVTLIDISFAVNEAAEKKIKSLQYLGSYIARAKKLSRTQIIFVASYLTSWLNRYVIEREEEVDQRGGMERFKHFYAAFQALCYIFCFRHNIFRDTDGNWECELDKFFQRMVISKFNPLKFCNENVMLMFARIAQQESVAYCFSIIENNNNERLRGIIGKADSDKKENSAQANTTSSSWSLATRQQFIDLQSYFPYDPLFLKNYKILMKEYYIEWSEASGEYESDGSDD
notes: Rrn3, RNA polymerase I-specific transcription initiation factor, S. cerevisiae; Released from the beads by TEV protease; source: S. cerevisiae strain y2183 with plasmid 729 (Ycplac111-GAL-Rrn3-TEV-ProtA-HIS), galactose-induced; purified in complex with Pol I (IgG beads, TEV elution)

Columns and labels:
[1] = molecular target: Rrn3-free RNA polymerase I (WT Pol I) purified through A135-TEV-ProtA (S. cerevisiae (endogenous in yeast) | S. cerevisiae) (UniProt P10964)
Sequence of Rrn3-free RNA polymerase I (WT Pol I) purified through A135-TEV-ProtA (S. cerevisiae (endogenous in yeast) | S. cerevisiae) (P10964 whole entry, looked up): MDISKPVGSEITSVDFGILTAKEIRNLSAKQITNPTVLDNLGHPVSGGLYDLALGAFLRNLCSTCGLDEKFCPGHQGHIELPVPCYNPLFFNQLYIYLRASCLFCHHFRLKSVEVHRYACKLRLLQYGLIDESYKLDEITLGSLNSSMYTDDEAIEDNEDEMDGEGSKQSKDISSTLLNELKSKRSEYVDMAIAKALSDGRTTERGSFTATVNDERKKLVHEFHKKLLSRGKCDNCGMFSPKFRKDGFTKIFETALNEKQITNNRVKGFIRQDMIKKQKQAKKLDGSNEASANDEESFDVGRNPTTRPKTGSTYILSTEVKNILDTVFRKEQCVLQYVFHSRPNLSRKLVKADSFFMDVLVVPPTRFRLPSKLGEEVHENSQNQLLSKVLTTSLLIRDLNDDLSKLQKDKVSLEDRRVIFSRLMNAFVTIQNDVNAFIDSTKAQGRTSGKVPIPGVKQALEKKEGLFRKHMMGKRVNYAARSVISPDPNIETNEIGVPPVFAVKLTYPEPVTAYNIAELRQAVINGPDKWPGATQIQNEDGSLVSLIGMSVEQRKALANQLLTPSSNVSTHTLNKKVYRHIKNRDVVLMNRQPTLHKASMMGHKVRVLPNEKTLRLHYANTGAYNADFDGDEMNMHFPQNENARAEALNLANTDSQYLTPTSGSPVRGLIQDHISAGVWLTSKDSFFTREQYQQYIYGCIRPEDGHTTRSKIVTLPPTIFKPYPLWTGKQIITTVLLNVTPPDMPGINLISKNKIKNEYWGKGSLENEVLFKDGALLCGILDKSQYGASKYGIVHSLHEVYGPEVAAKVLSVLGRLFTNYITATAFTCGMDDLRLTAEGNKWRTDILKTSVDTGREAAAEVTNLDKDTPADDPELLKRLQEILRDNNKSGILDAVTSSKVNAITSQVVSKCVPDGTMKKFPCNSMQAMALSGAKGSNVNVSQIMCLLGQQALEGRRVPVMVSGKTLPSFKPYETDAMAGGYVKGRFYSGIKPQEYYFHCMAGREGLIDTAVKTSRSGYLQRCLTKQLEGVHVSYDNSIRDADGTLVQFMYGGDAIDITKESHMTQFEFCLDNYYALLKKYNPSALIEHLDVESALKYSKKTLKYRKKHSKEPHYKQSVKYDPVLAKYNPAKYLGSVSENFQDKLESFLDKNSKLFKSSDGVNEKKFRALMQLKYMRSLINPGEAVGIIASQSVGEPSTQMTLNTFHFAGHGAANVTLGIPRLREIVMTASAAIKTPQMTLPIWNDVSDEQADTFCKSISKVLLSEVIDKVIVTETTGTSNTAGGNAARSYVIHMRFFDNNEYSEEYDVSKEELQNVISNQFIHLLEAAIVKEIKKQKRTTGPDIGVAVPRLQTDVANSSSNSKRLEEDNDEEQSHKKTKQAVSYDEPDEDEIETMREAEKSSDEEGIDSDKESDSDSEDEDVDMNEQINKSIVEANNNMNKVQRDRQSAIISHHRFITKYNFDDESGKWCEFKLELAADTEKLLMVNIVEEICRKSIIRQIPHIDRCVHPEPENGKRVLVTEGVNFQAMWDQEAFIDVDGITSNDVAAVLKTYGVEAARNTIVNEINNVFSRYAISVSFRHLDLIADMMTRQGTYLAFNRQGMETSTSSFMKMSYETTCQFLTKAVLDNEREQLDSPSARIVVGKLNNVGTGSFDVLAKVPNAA

[2] = molecular target: B1; experiment: cryo-EM structure; Pol I-Rrn3 complex purified from yeast, cross-linked with 0.5% glutaraldehyde for 2 min; 20 mM Hepes pH 7.8, 100 mM ammonium acetate, 2 mM MgCl2; 32,438 particles of intact complex; 7.5 Å; crystal structures of Pol I and Rrn3 docked into the map; conditions: both partners purified
[3] = molecular target: T1, Pol I subunit A190 (largest subunit) (S. cerevisiae (endogenous in yeast), UniProt P10964 1-1664); experiment: as above; conditions: both partners purified
T1 construct: A190, largest subunit of RNA polymerase I, S. cerevisiae; source: endogenous, S. cerevisiae; part of Pol I purified with Rrn3-ProtA (y2183) or through A135-ProtA (y2423)
T1 sequence (P10964 whole entry): as the sequence (P10964 whole entry, looked up) above

binding result [2]	Molecule	other results
–	Recombinant His6-Rrn3 (from UniProt P36070 1-627) (natural protein)	promoter-dependent in vitro transcription: purified Pol I-Rrn3 complex against the same concentration of Rrn3-free Pol I with recombinant His6-Rrn3 (70 nM) and CF (20 nM) [1]: < 10 fold
binds	Pol I subunit A14 (natural protein, S. cerevisiae (endogenous in yeast), UniProt P50106 1-137, looked up, A14, subunit of RNA polymerase I, S. cerevisiae; source: endogenous, S. cerevisiae; part of Pol I purified with Rrn3-ProtA (y2183)) MMKGSRRTGNNTATTLNTPVVIHATQLPQHVSTDEVLQFLESFIDEKENIIDSTTMNTISGNAADADAAAVANTSLNIDTNLSSSISQLKRIQRDFKGLPPAQDFSAAPIQVSTTEKKETSIGVSATGGKKTTFADE	–
binds	Pol I subunit AC19 (natural protein, S. cerevisiae (endogenous in yeast), UniProt P28000 1-142, looked up, AC19, subunit shared by RNA polymerases I and III, S. cerevisiae; source: endogenous, S. cerevisiae; part of Pol I purified with Rrn3-ProtA (y2183)) MTEDIEQKKTATEVTPQEPKHIQEEEEQDVDMTGDEEQEEEPDREKIKLLTQATSEDGTSASFQIVEEDHTLGNALRYVIMKNPDVEFCGYSIPHPSENLLNIRIQTYGETTAVDALQKGLKDLMDLCDVVESKFTEKIKSM	–
binds	Pol I subunit AC40 (natural protein, S. cerevisiae (endogenous in yeast), UniProt P07703 1-335, looked up, AC40, subunit shared by RNA polymerases I and III, S. cerevisiae; source: endogenous, S. cerevisiae; part of Pol I purified with Rrn3-ProtA (y2183)) MSNIVGIEYNRVTNTTSTDFPGFSKDAENEWNVEKFKKDFEVNISSLDAREANFDLINIDTSIANAFRRIMISEVPSVAAEYVYFFNNTSVIQDEVLAHRIGLVPLKVDPDMLTWVDSNLPDDEKFTDENTIVLSLNVKCTRNPDAPKGSTDPKELYNNAHVYARDLKFEPQGRQSTTFADCPVVPADPDILLAKLRPGQEISLKAHCILGIGGDHAKFSPVSTASYRLLPQINILQPIKGESARRFQKCFPPGVIGIDEGSDEAYVKDARKDTVSREVLRYEEFADKVKLGRVRNHFIFNVESAGAMTPEEIFFKSVRILKNKAEYLKNCPITQ	–
–	B1	binding result [3]: binds
